The target in assay [1] is T1, His-CYPJ (recombinant) (human, UniProt Q9H2H8 1-161).
T1 chain: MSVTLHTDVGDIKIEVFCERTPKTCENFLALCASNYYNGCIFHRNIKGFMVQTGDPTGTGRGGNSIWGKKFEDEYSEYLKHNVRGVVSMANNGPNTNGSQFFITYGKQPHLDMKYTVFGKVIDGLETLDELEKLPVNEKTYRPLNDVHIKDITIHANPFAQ
As to the kind of experiment: ITC.

Assay [2] addresses T2, His-CYPJ (recombinant) (human, UniProt Q9H2H8 1-161).
T2 construct: cyclophilin J (CYPJ, PPIL3), human; also called recombinant His-CYPJ
T2 sequence (looked up): T1 chain
As to the kind of experiment: ITC; synthetic NZF peptides and His-CYPJ; MicroCal iTC200, standard procedure. Conditions: both partners purified. On the technique in general: Isothermal titration calorimetry measures the heat released or taken up as one component is titrated into another.

B1: TAB3-NZF peptide (peptide)
peptide: WNCDSCTFLNHPALNRCEQCEMP
notes: peptide from the NZF domain of TAB3; limits counted from C706 named in the introduction; source: synthetic peptide (DgPeptides)
Consider B1, for which the Ka in the assay with His-CYPJ (recombinant) [1] was determined as 1030 M⁻¹. Moreover, in the assay with His-CYPJ (recombinant) [2], the binding result is “binds”.

B2: TAB2-NZF peptide (peptide)
peptide: QWNCTACTFLNHPALIRCEQCEMP
notes: peptide from the NZF domain of TAB2; limits counted from C670 and C673 named in the introduction; source: synthetic peptide (DgPeptides)
Turning to B2, the Ka with His-CYPJ (recombinant) [1] was determined as 283 M⁻¹. For the same molecule, in the assay with His-CYPJ (recombinant) [2], the binding result was “binds”.

(Values after paper PMC6197184, “Cyclophilin J limits inflammation through the blockage of ubiquitin chain sensing” (Nature Communications, 2018).)
